The target of this test is PfSAHH (recombinant S-adenosyl-L-homocysteine hydrolase), P50250. The experiment in a line: SPR. The conditions noted are these: chain shown with the change; Maximum response at end of analyte injection; SAHH on the sensor surface oxidized with 0.5 mM DTNB; 30 µl of analyte, 10 µM in HBS buffer; pre-injection …; parent: est. 93; read off a plot.
Sequence of PfSAHH (recombinant S-adenosyl-L-homocysteine hydrolase), P50250 (P50250 whole entry): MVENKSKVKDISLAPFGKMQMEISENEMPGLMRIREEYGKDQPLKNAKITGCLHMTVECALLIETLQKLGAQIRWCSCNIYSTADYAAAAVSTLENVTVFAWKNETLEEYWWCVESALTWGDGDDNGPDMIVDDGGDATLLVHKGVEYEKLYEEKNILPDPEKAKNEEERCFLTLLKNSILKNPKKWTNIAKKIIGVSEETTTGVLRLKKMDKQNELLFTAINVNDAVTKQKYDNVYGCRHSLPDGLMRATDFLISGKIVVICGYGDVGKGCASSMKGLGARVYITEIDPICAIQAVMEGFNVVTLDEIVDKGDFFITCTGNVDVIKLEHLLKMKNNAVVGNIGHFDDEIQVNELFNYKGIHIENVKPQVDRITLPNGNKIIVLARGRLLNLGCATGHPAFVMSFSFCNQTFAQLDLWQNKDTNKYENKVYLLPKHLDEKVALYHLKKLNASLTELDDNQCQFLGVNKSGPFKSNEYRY

B1: PfGrx1 (wild type glutaredoxin) C32S (protein)
chain: MAGTSEAVKKWVNKIIEENIIAVFAKTECPYSIKAISILKGYNLNSHMHVENIEKNPDMANIQAYLKELTGKSSVPRIFINKDVVGGCDDLVKENDEGKLKERLQKLGLVN
Consider B1, for which the response (RD (normalized)) came to 98.

B2: PfGrx1 (wild type glutaredoxin) C29S; C32S (protein)
chain: MAGTSEAVKKWVNKIIEENIIAVFAKTESPYSIKAISILKGYNLNSHMHVENIEKNPDMANIQAYLKELTGKSSVPRIFINKDVVGGCDDLVKENDEGKLKERLQKLGLVN
Regarding B2, the response (RD (normalized)) was found to be 59.

The record behind these values is PMC2660430.
